# Test results as given in publication PMC8643667, “TRF2 promotes dynamic and stepwise looping of POT1 bound telomeric overhang”.
# B1: T6(TTAGGG)2T6 overhang (mixed)
# DNA 1: TGGCGACGGCAGCGAGGCTTTTTTTTAGGGTTAGGGTTTTTT
# DNA 2: GCCTCGCTGCCGTCGCCA
# Target: T1, POT1 (human, UniProt Q9NUX5 1-634)
# T1 sequence: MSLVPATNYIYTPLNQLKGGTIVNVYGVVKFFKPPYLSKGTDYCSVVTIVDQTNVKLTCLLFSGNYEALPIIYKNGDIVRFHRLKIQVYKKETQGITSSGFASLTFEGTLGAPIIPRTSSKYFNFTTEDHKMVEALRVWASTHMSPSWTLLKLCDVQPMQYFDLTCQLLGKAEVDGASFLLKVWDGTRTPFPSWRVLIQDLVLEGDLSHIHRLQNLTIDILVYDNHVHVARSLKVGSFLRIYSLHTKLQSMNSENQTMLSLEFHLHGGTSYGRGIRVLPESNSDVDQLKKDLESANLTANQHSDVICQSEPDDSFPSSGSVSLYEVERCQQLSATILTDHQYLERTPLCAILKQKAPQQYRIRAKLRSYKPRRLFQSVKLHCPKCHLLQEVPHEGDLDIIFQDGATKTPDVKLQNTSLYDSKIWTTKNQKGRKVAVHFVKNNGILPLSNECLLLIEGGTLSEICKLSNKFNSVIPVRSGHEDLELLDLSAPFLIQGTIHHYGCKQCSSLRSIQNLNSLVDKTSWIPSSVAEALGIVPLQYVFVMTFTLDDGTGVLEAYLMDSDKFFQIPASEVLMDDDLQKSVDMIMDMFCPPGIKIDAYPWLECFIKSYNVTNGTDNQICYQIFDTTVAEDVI
# Experiment: smFRET; FRET to 0.45; 10 mM Tris-HCl pH 7.5, 100 mM NaCl, 10% glycerol, oxygen scavenging system (trolox, glucose, glucose oxidase, catalase), ~23 C
# Details: protein: recombinant; label: 3'Cy3 strand 1; Cy5 and 3'biotin strand 2; 3' overhang 24 nt; 18 bp duplex
binder,measurement,value
B1,binding result,binds
